The values below come from publication PMC11969024 (2025).

The chains are these.
B1: peptide HD2 (from tick evasin EVA4) / CCL18 (biotinylated, synthetic) (parent complex)
chain 1: EEDDYTAYAPLTCYFT
chain 2: AQVGTNKELCCLVYTSWQIPQKFIVDYSETSPQCPKPGVILLTKRGRQICADPNKKWVQKYISDLKLNA

In this experiment the parent is B1.
As to chain 1 EEDDYTFYAPLTCYFT [chain 1 A7F], the enrichment is -2.38 log2 (difference from the parental peptide).

In the case of chain 1 EEDDYTEYAPLTCYFT [chain 1 A7E], the enrichment was 2.03 log2 (difference from the parental peptide).

Consider chain 1 EEDDYTVYAPLTCYFT [chain 1 A7V], for which the enrichment was -1.12 log2 (difference from the parental peptide).

For chain 1 EEDDYTGYAPLTCYFT [chain 1 A7G], the enrichment was -0.215 log2 (difference from the parental peptide).

Regarding chain 1 EEDDYTSYAPLTCYFT [chain 1 A7S], the enrichment was 0.379 log2 (difference from the parental peptide).

chain 1 EEDDYTHYAPLTCYFT [chain 1 A7H]: the enrichment is -0.736 log2 (difference from the parental peptide).

Consider chain 1 EEDDYTRYAPLTCYFT [chain 1 A7R], for which the enrichment is 1.21 log2 (difference from the parental peptide).

Consider chain 1 EEDDYTPYAPLTCYFT [chain 1 A7P], for which the enrichment is 0.82 log2 (difference from the parental peptide).

Take chain 1 EEDDYTAIAPLTCYFT [chain 1 Y8I]: the enrichment was -7.58 log2 (difference from the parental peptide).

chain 1 EEDDYTANAPLTCYFT [chain 1 Y8N]: the enrichment was -8.33 log2 (difference from the parental peptide).

In the case of chain 1 EEDDYTALAPLTCYFT [chain 1 Y8L], the enrichment was -6.1 log2 (difference from the parental peptide).

On to chain 1 EEDDYTATAPLTCYFT [chain 1 Y8T], for which the enrichment is -4.68 log2 (difference from the parental peptide).

Turning to chain 1 EEDDYTAWAPLTCYFT [chain 1 Y8W], the enrichment was 0.189 log2 (difference from the parental peptide).

Regarding chain 1 EEDDYTACAPLTCYFT [chain 1 Y8C], the enrichment was -8.88 log2 (difference from the parental peptide).

In the case of chain 1 EEDDYYAYAPLTCYFT [chain 1 T6Y], the enrichment is -0.339 log2 (difference from the parental peptide).

chain 1 EEDDYPAYAPLTCYFT [chain 1 T6P]: the enrichment is -2.2 log2 (difference from the parental peptide).

Take chain 1 EEDDYGAYAPLTCYFT [chain 1 T6G]: the enrichment was 2.9 log2 (difference from the parental peptide).

With chain 1 EEDDYDAYAPLTCYFT [chain 1 T6D], the enrichment is 2.62 log2 (difference from the parental peptide).

Take chain 1 EEDDYLAYAPLTCYFT [chain 1 T6L]: the enrichment is -1.51 log2 (difference from the parental peptide).

Take chain 1 EEDDYNAYAPLTCYFT [chain 1 T6N]: the enrichment was 1.41 log2 (difference from the parental peptide).

Turning to chain 1 EEDDYMAYAPLTCYFT [chain 1 T6M], the enrichment is 0.172 log2 (difference from the parental peptide).

Turning to chain 1 EEDDYHAYAPLTCYFT [chain 1 T6H], the enrichment was 0.0995 log2 (difference from the parental peptide).

In the case of chain 1 EEDDYKAYAPLTCYFT [chain 1 T6K], the enrichment is -0.184 log2 (difference from the parental peptide).

Consider chain 1 EEDWYTAYAPLTCYFT [chain 1 D4W], for which the enrichment was -1.54 log2 (difference from the parental peptide).

In the case of chain 1 EEDHYTAYAPLTCYFT [chain 1 D4H], the enrichment is -3.06 log2 (difference from the parental peptide).

Take chain 1 EEDNYTAYAPLTCYFT [chain 1 D4N]: the enrichment is -1.99 log2 (difference from the parental peptide).

In the case of chain 1 EEDYYTAYAPLTCYFT [chain 1 D4Y], the enrichment was -1.35 log2 (difference from the parental peptide).

Turning to chain 1 EEDFYTAYAPLTCYFT [chain 1 D4F], the enrichment was -2.31 log2 (difference from the parental peptide).

Regarding chain 1 EEDEYTAYAPLTCYFT [chain 1 D4E], the enrichment is -0.211 log2 (difference from the parental peptide).

In the case of chain 1 EEDAYTAYAPLTCYFT [chain 1 D4A], the enrichment was -1.65 log2 (difference from the parental peptide).

For chain 1 EEDDYTAYAQLTCYFT [chain 1 P10Q], the enrichment was -5.59 log2 (difference from the parental peptide).

Turning to chain 1 EEDDYTAYAYLTCYFT [chain 1 P10Y], the enrichment is -6.76 log2 (difference from the parental peptide).

Regarding chain 1 EEDDYTAYAWLTCYFT [chain 1 P10W], the enrichment is -5.72 log2 (difference from the parental peptide).

Consider chain 1 EEDDYTAYAALTCYFT [chain 1 P10A], for which the enrichment was -7.91 log2 (difference from the parental peptide).

For chain 1 EEDDYTAYAPPTCYFT [chain 1 L11P], the enrichment is -3.17 log2 (difference from the parental peptide).

Consider chain 1 EEDDYTAYAPDTCYFT [chain 1 L11D], for which the enrichment was -8.28 log2 (difference from the parental peptide).

As for chain 1 EEDDYTAYAPETCYFT [chain 1 L11E], the enrichment was -3.32 log2 (difference from the parental peptide).

Turning to chain 1 EEDDYTAYAPGTCYFT [chain 1 L11G], the enrichment was -7.45 log2 (difference from the parental peptide).

Regarding chain 1 EEDDYTAYAPLTCYFP [chain 1 T16P], the enrichment is 1.74 log2 (difference from the parental peptide).

Consider chain 1 EEDDYTAYAPLTCYFY [chain 1 T16Y], for which the enrichment was -0.525 log2 (difference from the parental peptide).

On to chain 1 EEDDYTAYAPLTCYFV [chain 1 T16V], for which the enrichment was 0.0426 log2 (difference from the parental peptide).

For the variant chain 1 EEDDYTAYAPLTCYFM [chain 1 T16M], the enrichment was 0.26 log2 (difference from the parental peptide).

Turning to chain 1 EEDDYTAYAPLTCYFW [chain 1 T16W], the enrichment is -0.639 log2 (difference from the parental peptide).

In the case of chain 1 EEDDYTAYAPLTCYFS [chain 1 T16S], the enrichment was 0.936 log2 (difference from the parental peptide).

For chain 1 EEDDYTAYAPLTCYFE [chain 1 T16E], the enrichment is 1.13 log2 (difference from the parental peptide).

Regarding chain 1 EEDDFTAYAPLTCYFT [chain 1 Y5F], the enrichment was -0.587 log2 (difference from the parental peptide).

In the case of chain 1 EEDDETAYAPLTCYFT [chain 1 Y5E], the enrichment is -1.36 log2 (difference from the parental peptide).

Turning to chain 1 EEDDPTAYAPLTCYFT [chain 1 Y5P], the enrichment was -4.12 log2 (difference from the parental peptide).

As for chain 1 EEDDWTAYAPLTCYFT [chain 1 Y5W], the enrichment was 1.32 log2 (difference from the parental peptide).

Turning to chain 1 EEDDTTAYAPLTCYFT [chain 1 Y5T], the enrichment is -3.47 log2 (difference from the parental peptide).

In the case of chain 1 EEDDHTAYAPLTCYFT [chain 1 Y5H], the enrichment was -4.35 log2 (difference from the parental peptide).

As to chain 1 DEDDYTAYAPLTCYFT [chain 1 E1D], the enrichment is 1.97 log2 (difference from the parental peptide).

As to chain 1 SEDDYTAYAPLTCYFT [chain 1 E1S], the enrichment is -0.81 log2 (difference from the parental peptide).

With chain 1 QEDDYTAYAPLTCYFT [chain 1 E1Q], the enrichment is -1.1 log2 (difference from the parental peptide).

With chain 1 HEDDYTAYAPLTCYFT [chain 1 E1H], the enrichment is -1.83 log2 (difference from the parental peptide).

With chain 1 FEDDYTAYAPLTCYFT [chain 1 E1F], the enrichment was -2.72 log2 (difference from the parental peptide).

Take chain 1 WEDDYTAYAPLTCYFT [chain 1 E1W]: the enrichment was -2.19 log2 (difference from the parental peptide).

chain 1 GEDDYTAYAPLTCYFT [chain 1 E1G]: the enrichment is -0.506 log2 (difference from the parental peptide).

chain 1 EEDDYTAYRPLTCYFT [chain 1 A9R]: the enrichment was -1.3 log2 (difference from the parental peptide).

For chain 1 EEDDYTAYVPLTCYFT [chain 1 A9V], the enrichment is -8.05 log2 (difference from the parental peptide).

As to chain 1 EEDDYTAYHPLTCYFT [chain 1 A9H], the enrichment is -4.5 log2 (difference from the parental peptide).

For chain 1 EEDDYTAYGPLTCYFT [chain 1 A9G], the enrichment is -3.53 log2 (difference from the parental peptide).

Consider chain 1 EEDDYTAYPPLTCYFT [chain 1 A9P], for which the enrichment is -6 log2 (difference from the parental peptide).

In the case of chain 1 EEDDYTAYSPLTCYFT [chain 1 A9S], the enrichment was -1.48 log2 (difference from the parental peptide).

As to chain 1 EEDDYTAYTPLTCYFT [chain 1 A9T], the enrichment was -3.35 log2 (difference from the parental peptide).

In the case of chain 1 EEDDYTAYEPLTCYFT [chain 1 A9E], the enrichment is -0.109 log2 (difference from the parental peptide).

Turning to chain 1 EEDDYTAYYPLTCYFT [chain 1 A9Y], the enrichment was -7.05 log2 (difference from the parental peptide).

In the case of chain 1 EEDDYTAYWPLTCYFT [chain 1 A9W], the enrichment was -3.66 log2 (difference from the parental peptide).

As for chain 1 EADDYTAYAPLTCYFT [chain 1 E2A], the enrichment is -1.63 log2 (difference from the parental peptide).

chain 1 EPDDYTAYAPLTCYFT [chain 1 E2P]: the enrichment was -2.55 log2 (difference from the parental peptide).

As for chain 1 EMDDYTAYAPLTCYFT [chain 1 E2M], the enrichment was -1.79 log2 (difference from the parental peptide).

In the case of chain 1 EQDDYTAYAPLTCYFT [chain 1 E2Q], the enrichment was -1.4 log2 (difference from the parental peptide).

With chain 1 ELDDYTAYAPLTCYFT [chain 1 E2L], the enrichment was -1.93 log2 (difference from the parental peptide).

Turning to chain 1 ETDDYTAYAPLTCYFT [chain 1 E2T], the enrichment was -2.6 log2 (difference from the parental peptide).

For the variant chain 1 EHDDYTAYAPLTCYFT [chain 1 E2H], the enrichment was -2.48 log2 (difference from the parental peptide).

For the variant chain 1 EWDDYTAYAPLTCYFT [chain 1 E2W], the enrichment was -1.25 log2 (difference from the parental peptide).

Turning to chain 1 EEDDYTAYAPLTCNFT [chain 1 Y14N], the enrichment was -4.78 log2 (difference from the parental peptide).

Turning to chain 1 EEDDYTAYAPLTCIFT [chain 1 Y14I], the enrichment is -0.627 log2 (difference from the parental peptide).

Take chain 1 EEDDYTAYAPLTCTFT [chain 1 Y14T]: the enrichment is -1.1 log2 (difference from the parental peptide).

On to chain 1 EEDDYTAYAPLTCDFT [chain 1 Y14D], for which the enrichment is -5.4 log2 (difference from the parental peptide).

On to chain 1 EEDDYTAYAPLTCAFT [chain 1 Y14A], for which the enrichment was -5.59 log2 (difference from the parental peptide).

Regarding chain 1 EEDDYTAYAPLTCQFT [chain 1 Y14Q], the enrichment was -3.29 log2 (difference from the parental peptide).

On to chain 1 EEDDYTAYAPLTFYFT [chain 1 C13F], for which the enrichment is -5.66 log2 (difference from the parental peptide).

chain 1 EEDDYTAYAPLTMYFT [chain 1 C13M]: the enrichment was -4.59 log2 (difference from the parental peptide).

On to chain 1 EEDDYTAYAPLTWYFT [chain 1 C13W], for which the enrichment is -6.26 log2 (difference from the parental peptide).

chain 1 EEDDYTAYAPLTLYFT [chain 1 C13L]: the enrichment is -7.42 log2 (difference from the parental peptide).

chain 1 EEDDYTAYAPLTPYFT [chain 1 C13P]: the enrichment was -7.21 log2 (difference from the parental peptide).

Take chain 1 EEDDYTAYAPLTVYFT [chain 1 C13V]: the enrichment was -6.58 log2 (difference from the parental peptide).

With chain 1 EEDDYTAYAPLMCYFT [chain 1 T12M], the enrichment was 0.511 log2 (difference from the parental peptide).

With chain 1 EEDDYTAYAPLDCYFT [chain 1 T12D], the enrichment was -4.6 log2 (difference from the parental peptide).

Consider chain 1 EEDDYTAYAPLHCYFT [chain 1 T12H], for which the enrichment is -0.953 log2 (difference from the parental peptide).

In the case of chain 1 EEDDYTAYAPLPCYFT [chain 1 T12P], the enrichment is 1.92 log2 (difference from the parental peptide).

As for chain 1 EEDDYTAYAPLKCYFT [chain 1 T12K], the enrichment was -4.78 log2 (difference from the parental peptide).

For the variant chain 1 EEDDYTAYAPLTCYNT [chain 1 F15N], the enrichment is -2.68 log2 (difference from the parental peptide).

chain 1 EEDDYTAYAPLTCYTT [chain 1 F15T]: the enrichment is 0.316 log2 (difference from the parental peptide).

Regarding chain 1 EEDDYTAYAPLTCYET [chain 1 F15E], the enrichment was -2.62 log2 (difference from the parental peptide).

Turning to chain 1 EEDDYTAYAPLTCYWT [chain 1 F15W], the enrichment was -0.236 log2 (difference from the parental peptide).

With chain 1 EEDDYTAYAPLTCYMT [chain 1 F15M], the enrichment was 0.0729 log2 (difference from the parental peptide).

Turning to chain 1 EEDDYTAYAPLTCYRT [chain 1 F15R], the enrichment was -0.00139 log2 (difference from the parental peptide).

chain 1 EEDDYTAYAPLTCYST [chain 1 F15S]: the enrichment was -0.989 log2 (difference from the parental peptide).

As to chain 1 EEDDYTAYAPLTCYKT [chain 1 F15K], the enrichment is -0.831 log2 (difference from the parental peptide).

For the variant chain 1 EEDDYTAYAPLTCYVT [chain 1 F15V], the enrichment is 1.03 log2 (difference from the parental peptide).

For the variant chain 1 EEDDYTAYAPLTCYHT [chain 1 F15H], the enrichment is 0.242 log2 (difference from the parental peptide).

Regarding chain 1 EEDDYTAYAPLTCYDT [chain 1 F15D], the enrichment was -4.04 log2 (difference from the parental peptide).

Turning to chain 1 EEDDYTAYAPLTCYIT [chain 1 F15I], the enrichment is 0.366 log2 (difference from the parental peptide).

Turning to chain 1 EESDYTAYAPLTCYFT [chain 1 D3S], the enrichment was -1.57 log2 (difference from the parental peptide).

On to chain 1 EEQDYTAYAPLTCYFT [chain 1 D3Q], for which the enrichment was -2.18 log2 (difference from the parental peptide).

On to chain 1 EENDYTAYAPLTCYFT [chain 1 D3N], for which the enrichment is -1.71 log2 (difference from the parental peptide).

For chain 1 EETDYTAYAPLTCYFT [chain 1 D3T], the enrichment is -2 log2 (difference from the parental peptide).

As to chain 1 EEKDYTAYAPLTCYFT [chain 1 D3K], the enrichment is -3.97 log2 (difference from the parental peptide).

Turning to chain 1 EEVDYTAYAPLTCYFT [chain 1 D3V], the enrichment is -2.61 log2 (difference from the parental peptide).

For chain 1 EEFDYTAYAPLTCYFT [chain 1 D3F], the enrichment was -1.57 log2 (difference from the parental peptide).
